We go through 1 substance from article PMC4859480.

The target in this assay is HHV-6B U14 N-terminal domain (U14-NTD), residues 2-458 (human herpesvirus 6B (HHV-6B) strain HST). Briefly: crystal structure.

Take “HHV-6B U14 N-terminal domain (U14-NTD), residues 2-458 (domain or fragment)”: the stoichiometry N (in general, a count of units in the complex or per binding partner) came out at 2.
